Experimental data reported in publication PMC11661604.

Target: native Semliki Forest virus (SFV) virion (Semliki Forest virus)
Assay: SPR; Biacore 8K; purified SFV virions amine-coupled on a CM5 chip (more than 2,500 RU); Fc fusions flowed in gradient concentrations at 30 μL/min in PBS with 0.05% Tween-20, pH 7.4, 25°C; 1:1 binding model

| Substance | Kd | increase in KD compared to LA2-3 |
| --- | --- | --- |
| LA2-5-Fc (from UniProt P98155-1 69-237) (Fc fusion) | 269 nM | – |
| VLDLRLBD-Fc (ligand-binding domain of human VLDLR, LA1-8, Fc fusion) (from UniProt P98155-1 31-355) | 252 nM | – |
| LA2-3-Fc (from UniProt P98155-1 69-152) (Fc fusion) | 445 nM | – |
| LA3-4-Fc (from UniProt P98155-1 110-191) (Fc fusion) | 1480 nM | – |
| LA1-3-Fc (from UniProt P98155-1 31-152) (Fc fusion) | – | 100 nM |
| LA3-5-Fc (from UniProt P98155-1 110-237) (Fc fusion) | 438 nM | – |
| LA3-Fc (from UniProt P98155-1 110-152) (Fc fusion) | 903 nM | – |
